Patent publication US20230212305A1 (published 2023)

Assays:
human ABCG2 [1] = target: T1, human ABCG2 (UniProt Q9UNQ0 1-655); assay: FACS binding to 293T cells
T1 chain: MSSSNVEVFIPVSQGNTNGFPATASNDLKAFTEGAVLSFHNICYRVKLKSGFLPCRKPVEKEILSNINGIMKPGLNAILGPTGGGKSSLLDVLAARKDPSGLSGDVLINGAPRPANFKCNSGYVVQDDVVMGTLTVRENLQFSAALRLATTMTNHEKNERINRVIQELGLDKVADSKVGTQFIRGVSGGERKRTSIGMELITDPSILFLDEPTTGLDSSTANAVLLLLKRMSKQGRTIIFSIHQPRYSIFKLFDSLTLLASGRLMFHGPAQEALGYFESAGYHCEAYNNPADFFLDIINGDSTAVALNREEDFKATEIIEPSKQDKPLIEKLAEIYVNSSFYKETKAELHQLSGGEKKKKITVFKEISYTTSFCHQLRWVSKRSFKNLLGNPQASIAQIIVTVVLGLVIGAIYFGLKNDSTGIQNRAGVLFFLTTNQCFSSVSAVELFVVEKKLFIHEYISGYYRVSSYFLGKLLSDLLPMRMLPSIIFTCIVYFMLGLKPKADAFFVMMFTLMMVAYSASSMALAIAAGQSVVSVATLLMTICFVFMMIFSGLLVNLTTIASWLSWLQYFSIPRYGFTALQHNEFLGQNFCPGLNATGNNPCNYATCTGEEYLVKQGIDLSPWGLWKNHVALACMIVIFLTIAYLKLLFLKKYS

[2] = target: T2, cynomolgus ABCG2 (Macaca fascicularis) (UniProt Q5MB13 1-654); assay: FACS binding to 293T cells
T2 chain: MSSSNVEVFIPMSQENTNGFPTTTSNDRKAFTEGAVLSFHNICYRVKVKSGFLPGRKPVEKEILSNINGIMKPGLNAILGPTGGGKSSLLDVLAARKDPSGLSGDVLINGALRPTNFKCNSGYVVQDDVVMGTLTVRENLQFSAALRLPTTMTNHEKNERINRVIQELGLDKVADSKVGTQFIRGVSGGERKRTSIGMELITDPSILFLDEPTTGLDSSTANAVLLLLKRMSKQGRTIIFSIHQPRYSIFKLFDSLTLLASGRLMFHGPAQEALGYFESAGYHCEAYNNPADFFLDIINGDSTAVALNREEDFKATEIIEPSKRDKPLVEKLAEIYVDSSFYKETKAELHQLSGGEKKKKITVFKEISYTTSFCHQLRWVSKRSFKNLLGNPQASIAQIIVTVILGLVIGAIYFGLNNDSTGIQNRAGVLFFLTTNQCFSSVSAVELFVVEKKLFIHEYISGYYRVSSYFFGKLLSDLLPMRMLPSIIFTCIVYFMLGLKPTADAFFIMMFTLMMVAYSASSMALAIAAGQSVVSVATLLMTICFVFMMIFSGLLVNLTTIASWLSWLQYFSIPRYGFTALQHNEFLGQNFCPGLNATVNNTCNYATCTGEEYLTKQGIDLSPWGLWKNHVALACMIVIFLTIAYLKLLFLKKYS

[3] = target: T2, cynomolgus ABCG2 (Macaca fascicularis); assay: FACS binding to 293T.cG2 cells
human ABCG2 [4] = target: T1, human ABCG2; assay: FACS binding to 293T.hG2 cells
human ABCG2 [5] = target: T1, human ABCG2; assay: FACS cell binding (MFI)
human ABCG2 [6] = target: T1, human ABCG2; assay: FACS cell binding
human ABCG2 [7] = target: T1, human ABCG2; assay: FACS binding to 293T cells
[8] = target: T2, cynomolgus ABCG2 (Macaca fascicularis); assay: FACS binding to 293T cells
human ABCG2 [9] = target: T1, human ABCG2; assay: FACS binding to 293T cells
[10] = target: T2, cynomolgus ABCG2 (Macaca fascicularis); assay: FACS binding to 293T cells
G2_709 = assay: FACS binding to 293T cells
G2_377 = assay: FACS binding to 293T cells
G2_336 = assay: FACS binding to 293T cells
G2_656 = assay: FACS binding to 293T cells
G2_418 = assay: FACS binding to 293T cells
G2_639 = assay: FACS binding to 293T cells
human ABCG2 [11] = target: T1, human ABCG2; assay: FACS binding to 293T cells
[12] = target: T2, cynomolgus ABCG2 (Macaca fascicularis); assay: FACS binding to 293T cells
human ABCG2 [13] = target: T1, human ABCG2; assay: cell binding
[14] = target: T2, cynomolgus ABCG2 (Macaca fascicularis); assay: cell binding

B1: G2.748 rat (antibody, V domains shown)
VH: QVSLKESGPGMLQPSKTLSLTCSFSGFSLSTSGMVVNWIRQPSGKSLEWLAAIDWDGDKYYNPSLKHRLTVSKDTSNTQVVLKITSVDTADTATYYCARSIAPYRGWFGYWGQGTLVTVSS
VL: EIVLIQSPSSLPASLGERVTIICRASQDIGNNLNWYQQKPDGTIKPLIYFTSNFQSGVPSSFSGSRSGTDFSLTISSLEAEDFAMYYCQQDASLPWTFGGGTKLEIK
Kd (human ABCG2 [1]): 0.5 nM | Kd [2]: 0.5 nM | Kd [3]: 0.5 nM | Kd (human ABCG2 [4]): 0.5 nM

B2: G2.302 mouse (antibody, V domains shown)
VH: QIQLQQSGPELVRPGASVKISCKASGYTFTDYYINWVKQRPGQGLEWIGWIYPGNVNVKYNEKFKGKATLTVDTSSSTGYMQLRSLTSEDSAVYFCARSIGLRYFDNWGQGTTLTVSS
VL: EKVLTQSPAIMSASLGEKVTMSCRASSSVHYMYWHQQKSDASPRLWIYYTSNLAPGVPARFSGSGSGNFYSLTISSVEDEDGATYYCQQFTTSTWTFGGGTKLEIK
EC50 (human ABCG2 [5]): 18.5 nM | Kd (human ABCG2 [6]): 33.6 nM

B3: G2_360 (antibody, V domains shown)
VH: QVQLRESGPGLVQPSQTLSLTCTVSGLSLTSNSISWIRQPPGKGLEWMGVIWSTGGTDYNSAIKSRLSISRDTSKSQVFLKMNSLQTEDTAMYFCARAIAASAVMDAWGQGASVTVSS
VL: DIQMTQSPPSLSASLGDKVTITCQASQNIHKYIGWYQQKPGKAPRLLIRYTSTLESGTPSRFSGSGSGRYYSFSISNVESEDIASYYCLQYVNLWTFGGGTKLELK
Kd (human ABCG2 [7]): 23.7 nM | Kd [8]: 156 nM

B4: G2_746 (antibody, V domains shown)
VH: VKLEESGPGLVLPSQTLSLSCTVSGLSLISNSISWIRQPPGKGLEWMGVMWNNGGTDYNSAIKSRLSISRDTSKSQVFLKMNSLQTEDTAMYFCARGYSSYIFDYWGQGASVTVSS
VL: DILMTQSPPSLSASLGDKVTITCQASQNIHGYIAWYQQKPGRLPRLLIRLTSTLESGTPSRFSGSGSGRDYSFSISNVESEDLASYYCLQYVNLWTFGGGTKLELK
Kd (human ABCG2 [9]): 22.3 nM | Kd [10]: 66.4 nM

B5: cG2 (other)
chain: MSSSNVEVFIPMSQENTNGFPTTTSNDRKAFTEGAVLSFHNICYRVKVKSGFLPGRKPVEKEILSNINGIMKPGLNAILGPTGGGKSSLLDVLAARKDPSGLSGDVLINGALRPTNFKCNSGYVVQDDVVMGTLTVRENLQFSAALRLPTTMTNHEKNERINRVIQELGLDKVADSKVGTQFIRGVSGGERKRTSIGMELITDPSILFLDEPTTGLDSSTANAVLLLLKRMSKQGRTIIFSIHQPRYSIFKLFDSLTLLASGRLMFHGPAQEALGYFESAGYHCEAYNNPADFFLDIINGDSTAVALNREEDFKATEIIEPSKRDKPLVEKLAEIYVDSSFYKETKAELHQLSGGEKKKKITVFKEISYTTSFCHQLRWVSKRSFKNLLGNPQASIAQIIVTVILGLVIGAIYFGLNNDSTGIQNRAGVLFFLTTNQCFSSVSAVELFVVEKKLFIHEYISGYYRVSSYFFGKLLSDLLPMRMLPSIIFTCIVYFMLGLKPTADAFFIMMFTLMMVAYSASSMALAIAAGQSVVSVATLLMTICFVFMMIFSGLLVNLTTIASWLSWLQYFSIPRYGFTALQHNEFLGQNFCPGLNATVNNTCNYATCTGEEYLTKQGIDLSPWGLWKNHVALACMIVIFLTIAYLKLLFLKKYS
Kd (G2_709): 41.4 nM | Kd (G2_377): 31.4 nM | Kd (G2_336): 410 nM | Kd (G2_656): 272 nM | Kd (G2_418): 38.8 nM | Kd (G2_639): 14.3 nM

B6: anti-ABCG2 antibody 5D3 (antibody, V domains shown)
VH: QVQLQESGPGLVKPSQSLSLTCTVTGFSITSDYAWNWIRQFPGKKLEWMGYINFDGGTTYNPSLRGRISITRDTSKNQFFLQLRSVTPEDTATYYCATFYGAKGTLDYWGQGTSVTVSS
VL: DIVLTQSPSSFSVSLGDRVTISCKASGYILNRLAWYQQKPGNAPRLLISGATSLETGFPSRFSGTGSGKDYTLSISSLQTEDVGTYYCQQYWSTPWTFGGGTKLEIK
Kd (human ABCG2 [1]): 37.7 nM | Kd [2]: 99.2 nM | EC50 (human ABCG2 [5]): 8.5 nM | Kd [3]: 99.2 nM | Kd (human ABCG2 [11]): 15.7 nM | Kd [12]: 253 nM | Kd (human ABCG2 [4]): 37.7 nM | EC50 (human ABCG2 [13]): 4.9 nM | EC50 [14]: 131 nM

B7: G2.173 Humanized 3 (antibody, V domains shown)
VH: EVQLVQSGAEVKKPGASVKVSCKASGFNIKDDYVHWVRQAPGQGLEWIGRIDPASGNTRYAPKFRGRATMTADTSISTAYMELSRLRSDDTAVYYCSPPLWVGGFAYWGQGTLVTVSS
VL: DVVMTQSPLSLPVTLGQPASISCRSSQSLVHSDVNTYLHWYQQRPGQSPRLLIYKVSNRFSGVPDRFSGSGSGTDFTLKISRVEAEDVGVYFCSQTTHVPYTFGGGTKLEIK
Kd (human ABCG2 [6]): 33.5 nM

B8: G2.636 rat (antibody, V domains shown)
VH: EVKLVESGGGLVQPGRSLKLSCAASGFTFSRFYMAWVRQAPTKGLEWVAHISHGGDTTYYRDSVKGRFTISRDNAKSTLFLQMDSLRSEDTATYYCTTSAAPWNYVMDGWGLGASVTVSS
VL: DIVMTQSPSLLSASVGDRVTLTCKGSQNINNFLAWYQQKLGEAPKLLIYKTNSLHTGIPSRFSGSGSGTDYTLTISSLHSEDLATYYCYQYNNGYTFGAGTKLELK
EC50 (human ABCG2 [13]): 80 nM | EC50 [14]: 341 nM | Kd (human ABCG2 [9]): 10.9 nM | Kd [10]: 62.5 nM
